This is an account of results in article PMC11066147 (Heliyon, 2024).

To fix the notation:
B2: Plasmodium falciparum Hsp110 (PfHsp70-z, PF3D7_0708800) (natural protein)
chain: MSVLGIDIGNDNSVVATINKGAINVVRNDISERLTPTLVGFTEKERLIGDSALSKLKSNYKNTCRNIKNLIGKIGTDVKDDIEIHEAYGDLIPCEYNYLGYEVEYKNEKVVFSAVRVLSALLSHLIKMAEKYIGKECKEIVLSYPPTFTNCQKECLLAATKIINANVLRIISDNTAVALDYGMYRMKEFKEDNGSLLVFVNIGYANTCVCVARFFSNKCEILCDIADSNLGGRNLDNELIKYITNIFVNNYKMNPLYKNNTPELCPMGTGRLNKFLVTSTASDQQNGINNKVRIKLQEVAIKTKKVLSANNEASIHVECLYEDLDCQGSINRETFEELCSNFFLTKLKHLLDTALCISKVNIQDIHSIEVLGGSTRVPFIQNFLQQYFQKPLSKTLIADESIARGCVLSAAMVSKHYKVKEYECVEKVTHPINVEWHNINDASKSNVEKLYTRDSLKKKVKKIVIPEKGHIKLTAYYENTPDLPSNCIKELGSCIVKINEKNDKIVESHVMTTFSNYDTFTFLGAQTVTKSVIKSKDEKKKADDKTEDKGEKKDAKDQEQNDDKDQTNDNNMNEKDTNDKKEKNNETNSPNKTELKKGEEGKVQTCYTTIPIETLLAQGSYSSKDIFNFSEQEINMQHSDILEGERLKHLNELETIIYESRSRLNGIYKNFVMDDERDRILLSLDDYENWLYDNIEENKNMFIKKKEEIRDLIKNIVQKFDVYNSKQQNLGNIINHLNNIITQCSNKPSDESQNIINRTTKFLNNINSLQEQEKNKPLYEPPVYTLNDIEAEFNEVTQLAQKFFSKLEVEELAKQKAKQEKEKEKEKEKEKEKEKEKNEETNLDANEEQNNEAKNNEEKENSTKNENSANPEE
B3: Plasmodium falciparum heat shock protein 70-1 (PfHsp70-1) (natural protein)
chain: not shown

Several values for one entry are separate records, joined by “and”; a condition that tells them apart may be missing. Equal entries are not always repeated. Where two headings read alike, the source gives them in different places.

Holding throughout (assay): SPR
(In SPR one partner is held on a chip, and binding of the other changes the refractive index at the surface.)

Series [1] has as its target T1, E. coli Hsp70 (DnaK) (E. coli, UniProt P0A6Y8 1-638).
In series [2] the target is B2.
For series [3], the target named is B3.
The target of series [4] is T1, E. coli Hsp70 (DnaK). The source holds these as a separate data set.
The target of series [5] is B2. This is another data set of the same source.
For series [6], the target named is B3. The source holds these as a separate data set.
The series “SPR” concerns the molecule itself.
Series [7] has as its target B2. The source holds these as a separate data set.

B1: NRLLTG (peptide)
peptide: NRLLTG
Usually Kd stands for the constant that tells how readily two partners part at equilibrium. A higher Kd goes with a looser complex. For the molecule B1, the Kd with E. coli Hsp70 (DnaK) [1] stood at 12.3 ± 0.03 nM; in series [2], 145 ± 0.03 nM; in series [3], 97.4 ± 0.04 nM; with E. coli Hsp70 (DnaK) [4] it was 2530 ± 30 nM; in series [5], 128 ± 0.08 nM; in series [6], 181 ± 0.01 nM.

As usually defined, the koff is a measure of how fast the partners let go of each other. Low values mean a long-lived complex, high ones a short-lived complex. On to B2, for which, in “SPR”, the koff was 5.27e-05 s⁻¹ and 7.73e-05 s⁻¹ and 3.37e-05 s⁻¹.

Turning to B3, the binding result in series [7] is given as “binds”.

B4: ALLLMYRR (peptide)
peptide: ALLLMYRR
On to B4, for which the dissociation constant Kd with E. coli Hsp70 (DnaK) [1] was 82 ± 0.02 nM; in series [2], 43.1 ± 0.01 nM; in series [3], 61.8 ± 0.08 nM; with E. coli Hsp70 (DnaK) [4] it was 4450 ± 50 nM; in series [5], 97.1 ± 0.09 nM; in series [6] it was 140 ± 0.4 nM.

B5: ANNNMYRR (peptide)
peptide: ANNNMYRR
Take B5: the Kd is 440 ± 4 nM with E. coli Hsp70 (DnaK) [1]; 9.37 ± 0.07 nM in series [2]; 4.02 ± 0.02 nM in series [3]; 8960 ± 60 nM with E. coli Hsp70 (DnaK) [4]; 8.31 ± 0.01 nM in series [5]; 45.4 ± 0.07 nM in series [6].

B6: NRNNTG (peptide)
peptide: NRNNTG
Take B6: the Kd came to 24.9 ± 0.09 nM in the series with E. coli Hsp70 (DnaK) [1]; 24.1 ± 0.01 nM in series [2]; 10.2 ± 0.02 nM in series [3]; 7310 ± 10 nM with E. coli Hsp70 (DnaK) [4]; 52.5 ± 0.05 nM in series [5]; 296 ± 0.07 nM in series [6].
